From patent US20250270341A1 (Alector, published 2025) come the findings set out here.

The target of experiment [1] is T1, Full length mouse CD98hc on CHO cells (mouse, UniProt P10852 1-526).
T1 construct: CHO cells stably overexpressing it; also called CHO-mouse CD98hc; CHO-mCD98hc
T1 sequence: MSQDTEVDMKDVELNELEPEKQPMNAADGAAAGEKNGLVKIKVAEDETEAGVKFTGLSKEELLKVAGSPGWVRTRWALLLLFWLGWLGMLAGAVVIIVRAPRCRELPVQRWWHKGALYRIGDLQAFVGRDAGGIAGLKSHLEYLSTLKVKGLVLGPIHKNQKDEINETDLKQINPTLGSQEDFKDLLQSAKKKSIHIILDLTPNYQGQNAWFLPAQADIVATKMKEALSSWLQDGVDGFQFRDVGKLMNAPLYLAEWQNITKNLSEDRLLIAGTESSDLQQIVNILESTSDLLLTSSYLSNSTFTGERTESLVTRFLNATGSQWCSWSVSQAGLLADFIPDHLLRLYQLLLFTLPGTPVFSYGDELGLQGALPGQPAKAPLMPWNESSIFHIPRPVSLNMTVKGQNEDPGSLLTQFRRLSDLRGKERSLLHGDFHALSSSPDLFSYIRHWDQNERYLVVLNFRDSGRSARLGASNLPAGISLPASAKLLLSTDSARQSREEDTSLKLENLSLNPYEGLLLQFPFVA
Put plainly: FACS, hybridoma supernatant. In general terms: In flow cytometry, cells or beads pass a laser one at a time.

Another experiment concerns the target T2, huCD98hc ECD Avi-His (human, UniProt P08195 105-529).
T2 construct: biotinylated on the Avi tag where captured on streptavidin; also called Human CD98-AVI-His; Human CD98hc-AVI-His
T2 sequence: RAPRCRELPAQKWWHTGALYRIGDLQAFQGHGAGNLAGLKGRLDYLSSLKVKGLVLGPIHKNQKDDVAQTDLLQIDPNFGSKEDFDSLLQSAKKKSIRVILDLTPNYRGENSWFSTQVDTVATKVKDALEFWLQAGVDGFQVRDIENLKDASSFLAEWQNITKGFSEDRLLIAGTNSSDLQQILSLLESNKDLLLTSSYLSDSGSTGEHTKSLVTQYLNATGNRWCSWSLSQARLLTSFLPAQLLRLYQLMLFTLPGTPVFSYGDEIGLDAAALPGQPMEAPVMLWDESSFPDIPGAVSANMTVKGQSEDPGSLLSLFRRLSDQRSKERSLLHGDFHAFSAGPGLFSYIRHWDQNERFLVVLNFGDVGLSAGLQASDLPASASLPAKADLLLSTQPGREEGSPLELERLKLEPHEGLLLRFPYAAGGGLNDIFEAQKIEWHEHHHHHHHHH
The experiment in a line: ELISA, hybridoma supernatant. On the procedure:
(§1) Briefly, 96-well polystyrene plates were coated with 5 μg/ml of streptavidin (Thermo Fisher, Cat #PI21125) in coating buffer (0.05M carbonate buffer, pH 9.6, Sigma, Cat #C3041) overnight at 4° C. Coated plates were then blocked with ELISA diluent (PBS+0.5% BSA+0.05% Tween20) for one hour. Blocking buffer was removed and human, cyno, or mouse Avi-His-tagged CD98hc and Avi-His-tagged human TfR polypeptides were added at 1 μg/ml in ELISA diluent and captured for 1 hour at room temperature. After washing three times with 300 μl of PBST (PBS+0.05% Tween20, Thermo 28352), the hybridoma cell culture supernatants or 1 μg/ml of commercially available purified mouse anti-human CD98hc monoclonal antibody (Sigma Aldrich, Cat #SAB 4700503) and rat anti-mouse CD98hc antibody (Bio-Rad Laboratories, Hercules, CA, Cat #MCA2684) were added (50 μl/well) to each well. After 30 minutes of incubation at room temperature, the plates were washed three times with 300 μl of PBST. […] After a final set of washes (3×300 μl in PBST), 50 μl/well of BioFx TMB substrate (Surmodics, Eden Praire, MN, Cat #TMBW-1000-01) was added to the wells. The reaction was then quenched after 5-10 mins with 50 μl/well of 2N sulfuric acid. The plates were read for absorbance at 450 nm on a SpectraMax M5 (Molecular Devices, Sunnyvale, CA) using SoftMax Pro software.
Background: In an ELISA, binding on a coated surface is turned into a signal by an enzyme label.

The target of another experiment is T3, Cyno CD98hc ECD Avi-His (cynomolgus macaque, UniProt P08195 105-529 (human entry)).
T3 construct: biotinylated on the Avi tag where captured on streptavidin; also called Cyno CD98-AVI-His; Cyno CD98hc-AVI-His
T3 chain: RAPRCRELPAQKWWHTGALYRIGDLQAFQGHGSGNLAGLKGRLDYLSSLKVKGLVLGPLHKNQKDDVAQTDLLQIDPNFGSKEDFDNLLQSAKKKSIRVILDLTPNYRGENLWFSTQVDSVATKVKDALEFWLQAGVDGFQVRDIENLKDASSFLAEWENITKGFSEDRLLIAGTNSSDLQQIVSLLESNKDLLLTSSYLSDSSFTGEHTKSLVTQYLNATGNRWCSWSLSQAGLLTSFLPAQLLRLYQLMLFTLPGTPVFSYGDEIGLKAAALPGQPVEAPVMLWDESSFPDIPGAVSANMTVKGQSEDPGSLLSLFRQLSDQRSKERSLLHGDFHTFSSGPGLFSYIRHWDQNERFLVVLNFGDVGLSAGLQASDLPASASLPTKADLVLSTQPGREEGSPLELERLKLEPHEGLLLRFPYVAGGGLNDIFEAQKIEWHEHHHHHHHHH
The experiment in a line: ELISA, hybridoma supernatant. On the procedure: as §1

Another experiment addresses T4, muCD98hc ECD Avi-His (mouse, UniProt P10852 100-526).
T4 construct: biotinylated on the Avi tag where captured on streptavidin; also called Mouse CD98-AVI-His; Mouse CD98hc-AVI-His
T4 sequence: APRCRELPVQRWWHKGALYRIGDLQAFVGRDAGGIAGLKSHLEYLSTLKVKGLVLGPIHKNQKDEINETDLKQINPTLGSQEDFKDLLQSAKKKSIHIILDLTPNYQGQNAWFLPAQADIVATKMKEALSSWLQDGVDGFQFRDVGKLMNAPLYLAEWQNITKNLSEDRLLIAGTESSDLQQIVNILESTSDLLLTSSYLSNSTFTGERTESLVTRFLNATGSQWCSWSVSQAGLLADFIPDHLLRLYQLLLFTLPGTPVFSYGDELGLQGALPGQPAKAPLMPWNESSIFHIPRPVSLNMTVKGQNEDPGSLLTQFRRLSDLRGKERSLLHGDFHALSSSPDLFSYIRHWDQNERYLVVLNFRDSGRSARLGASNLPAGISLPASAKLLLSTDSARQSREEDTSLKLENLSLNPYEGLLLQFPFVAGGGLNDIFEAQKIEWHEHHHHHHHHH
Put plainly: ELISA, hybridoma supernatant. On the procedure: as §1

Experiment [2] deals with T5, Human TfR-AVI-His (control) (human, UniProt P02786 89-760).
T5 construct: control protein; also called Avi-His-tagged human TfR; human transferrin receptor
T5 sequence (P02786 89-760 limits assumed): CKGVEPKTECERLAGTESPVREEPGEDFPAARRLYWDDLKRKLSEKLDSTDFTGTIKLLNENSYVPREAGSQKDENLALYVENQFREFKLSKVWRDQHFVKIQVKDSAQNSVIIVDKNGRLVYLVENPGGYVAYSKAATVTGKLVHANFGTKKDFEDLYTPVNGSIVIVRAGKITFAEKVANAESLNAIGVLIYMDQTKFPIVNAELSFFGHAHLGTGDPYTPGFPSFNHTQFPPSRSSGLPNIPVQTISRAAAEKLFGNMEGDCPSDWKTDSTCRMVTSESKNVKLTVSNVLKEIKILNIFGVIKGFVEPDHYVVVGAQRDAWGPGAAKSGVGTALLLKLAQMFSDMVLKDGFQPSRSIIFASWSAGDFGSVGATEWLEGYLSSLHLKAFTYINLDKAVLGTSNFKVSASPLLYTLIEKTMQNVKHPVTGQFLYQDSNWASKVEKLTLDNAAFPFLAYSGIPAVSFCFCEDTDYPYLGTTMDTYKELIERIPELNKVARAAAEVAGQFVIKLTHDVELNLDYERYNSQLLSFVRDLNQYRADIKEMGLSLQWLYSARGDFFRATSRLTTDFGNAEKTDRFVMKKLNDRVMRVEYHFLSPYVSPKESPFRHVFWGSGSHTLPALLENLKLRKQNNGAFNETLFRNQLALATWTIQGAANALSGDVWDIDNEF
Put plainly: ELISA, hybridoma supernatant. On the procedure:
as §1

B1: CD98HC.04.012 (antibody, V domains shown)
VH: QVQLQQSGADLVRPGDSVKISCKGSGYTFTDNTLHWVKQSHAKSLEWIGVISPYYGDASYNQKFKGKATMTVDKSSSTAYMELARLTSEDSAIYYCARVGGRLRLGYYFDHWGQGTTLTVSS
VL: NIMMTQSPSSLAVSAGEKVTMNCKSSQSVLSSSNQKNYLAWYQQKPGQSPKLLIYWASTRESGVPARFTGSGSGTDFSLTITSVQAEDLAVYYCLQYLSSYTFGGGTKLEIK
notes: hybridoma IgG
Regarding B1, the “MFI ratio over secondary antibody” value in experiment [1] came to 1.1. Further, the OD450 with huCD98hc ECD Avi-His is 1.64; with Cyno CD98hc ECD Avi-His, 1.73; in the experiment with muCD98hc ECD Avi-His, 0.0786; in experiment [2], 0.074.

B2: CD98HC.04.011 (antibody, V domains shown)
VH: DVQLQESGPDLVKPSQSLSLTCSVTVYSFTSVYSWHWIRQFPGNKLEWMGYIHDSGTTNYNPSLKSRISVTRDTSKNQFFLQLNSVTTEDTATYYCARGRPYGYDGFAYWGQGTLVTVSA
VL: DIQMTQSSSYLSVSLGDRVTITCKASDHINNWLAWYQQKPGNAPRLLITGAVNLETGVPSRFSGSGSGKDYTLSITSLQTEDVATYYCQQYWSIPRTFGGGTNLEIK
notes: hybridoma IgG
In the case of B2, the “MFI ratio over secondary antibody” value in experiment [1] was determined as 1.1. The OD450 was determined as 1.16 in the experiment with huCD98hc ECD Avi-His, 1.76 in the experiment with Cyno CD98hc ECD Avi-His, 0.067 in the experiment with muCD98hc ECD Avi-His and 0.0705 in experiment [2].

B3: CD98HC.03.002 (antibody, V domains shown)
VH: DVQLVESGGGLVQPGGSRKLSCAASGFTFSTFGMHWVRQAPEKGLEWVAYISGGSTNIYYADTVKGRFTISRDNPKNTLFLQMTSLRSEDTAMYYCARETTLLATNFDYWGQGTTLTVSS
VL: DIQMTQTTSSLSASLGDRVTISCRASQDISNYLNWYQQKPDGTVKLLIYYTSRLHSGVPSRFSGSGSGTDYSLTISNLEQEDIATYFCQQGSTLPRTFGGGTKLEIK
notes: hybridoma IgG
For B3, the “MFI ratio over secondary antibody” value in experiment [1] stood at 1. In addition, the OD450 with huCD98hc ECD Avi-His amounted to 1.53; in the experiment with Cyno CD98hc ECD Avi-His it was 1.69; in the experiment with muCD98hc ECD Avi-His, 0.0802; in experiment [2] it was 0.073.

B4: CD98HC.04.003 (antibody, V domains shown)
VH: QVQLQQSGAELAKPGASLKMSCKASGYTFTDYYIHWVKQRPGQDLEWIGYINPNSAYTDSNQKFKDKATLTADKSSNTAYMQLSSLTSEDSAVYYCARKGHFYAPSFAYWGQGTLVTVSA
VL: DIQMTQTTSSLSASLGDRVTISCRASQDISNYLNWYQQKPDGTVKLLIYYTSRLHSGVPSRFSGSGSGADYSLTISNLQQEDIATYFCQQGDTLPYTFGGGTKLEIE
notes: hybridoma IgG
Turning to B4, the “MFI ratio over secondary antibody” value in experiment [1] amounted to 1.1. The OD450 amounted to 1.6 in the experiment with huCD98hc ECD Avi-His, 2.05 with Cyno CD98hc ECD Avi-His, 0.0565 with muCD98hc ECD Avi-His and 0.0601 in experiment [2].

B5: CD98HC.04.006 (antibody, V domains shown)
VH: EVNLVESGGDLVQPGGSLRLSCATSGFTFTDYFMSWVRQPPGKALEWLGFIRNKAYGYTTEYSASVKGRFTISRDNSQSIFYLQMNTLRLEDSATYYCARGPFISTAPFAYWGQGTLVTVSA
VL: DIVMSQSPSSLAVSVGETVTMSCKSSQSLLYSSNQKNYLAWYQQKPGQSPKLLIYWGSTRESGVPDRFTGSGSGTDFTLTISSVKAEDLAVYYCQHYYGYPWTFGGGTKLEIK
notes: hybridoma IgG
Consider B5, for which the “MFI ratio over secondary antibody” value in experiment [1] came out at 1.1. For the same molecule, the OD450 in the experiment with huCD98hc ECD Avi-His amounted to 1.24; with Cyno CD98hc ECD Avi-His, 1.71; with muCD98hc ECD Avi-His, 0.13; in experiment [2], 0.129.

B6: CD98HC.03.031 (antibody, V domains shown)
VH: QVQLQQSGAELVRPGVSVKISCKASGYTFTDYAMHWVKQSHAKSLEWIGVISTYYGDTTYNQKFKDKATMTVDKSSSTAYLELARLTSEDSAIYYCARVWLLSYAMDNWGQGTSVTVSS
VL: DIVMTQSQRFMSTSVGDGVRITCKASQNVRTAVAWYQQKPGQSPKALINLAPNRHTGVPDRFTARGSGTDFTLTISNVQSEDLADYFCLQHWNYPLTFGAGTKLELK
notes: hybridoma IgG
As to B6, the “MFI ratio over secondary antibody” value in experiment [1] was determined as 1.2. For the same molecule, the OD450 with huCD98hc ECD Avi-His came to 1.06; with Cyno CD98hc ECD Avi-His it was 1.48; with muCD98hc ECD Avi-His it was 0.0843; in experiment [2] it was 0.0873.

B7: CD98HC.04.009 (antibody, V domains shown)
VH: QVQLKESGPGLVAPSQSLSITCTVSGFSLTSYGVHWVRQPPGKGLEWLGVIWAGGSTYYNSALMSRLSISKDNAKSQVLLKMSSLQTDDTAMYYCARDNYGGVYLDVWGAGTTVTVSS
VL: ENVLTQSPASMSASPGEKVTMTCRASSSVSSSYLHWYQQKSGASPKLWIYSTSNLASGVPARFSGSGSGTSYSLTISSVEAEDAATYYCQQYSGYPLTFGSGTKLEIK
notes: hybridoma IgG
For the molecule B7, the “MFI ratio over secondary antibody” value in experiment [1] amounted to 1.1. Further, the OD450 with huCD98hc ECD Avi-His was determined as 0.991; with Cyno CD98hc ECD Avi-His it was 1.42; with muCD98hc ECD Avi-His it was 0.0688; in experiment [2], 0.0743.

B8: CD98HC.04.010 (antibody, V domains shown)
VH: QVQLQQSGAELMKPGASVKISCKATGYTFSTYWIEWVKQRPGHGLEWIGEILPGSGTTTYNEKFKGKATFTADTSSNTAYMQLSSLTSEDSAVYYCARRTVYYRYEGIDYWGQGTTLTVSS
VL: QIVLTQSPAIMSASPGEKVTITCSASSSVSYMFWFQQRPGTSPKLWIYTTSNLASGVPARFSGSGSGTSYSLTISRMEAEDAATYYCQQKNNYPFTFGSGTKLEIK
notes: hybridoma IgG
In the case of B8, the “MFI ratio over secondary antibody” value in experiment [1] turned out to be 1.1. The OD450 came out at 1.48 with huCD98hc ECD Avi-His, 1.97 with Cyno CD98hc ECD Avi-His, 0.0907 with muCD98hc ECD Avi-His and 0.102 in experiment [2].
